Test results published in US20170204176A1 (MacroGenics, published 2017).

Assays:
human DR5 = human DR5 (human, UniProt O14763 56-210, limits assumed); assay: titration with fluorescence readout (y axis: Log MFI); the text does not describe the assay format
histidine tagged TRAIL [1] = target: T1, histidine tagged TRAIL (UniProt P50591 95-281, limits assumed); assay: ELISA; biotinylated DR5 mAb 1 on 1 µg/mL TRAIL-His coat
T1 construct: also called TRAIL-His; TRAIL ligand; not shown: histidine tag

[2] = target: T2, His-tagged cynomolgus monkey DR5 (cynomolgus monkey (Macaca fascicularis)); assay: Biacore (SPR); DR5 mAb 4×CD3 mAb 2 diabody with His-tagged cynomolgus monkey DR5
T2 construct: also called His-tagged DR5
Procedure: (§1) Bi-specific DR5×CD3 diabodies were incubated with His-tagged DR5 and the kinetics of binding was determined via Biacore analysis.

[3] = target: T2, His-tagged cynomolgus monkey DR5; assay: Biacore (SPR); DR5 mAb 3×CD3 mAb 2 diabody with His-tagged cynomolgus monkey DR5
Procedure: as §1

[4] = target: T2, His-tagged cynomolgus monkey DR5; assay: Biacore (SPR); DR5 mAb 2×CD3 mAb 2 diabody with His-tagged cynomolgus monkey DR5
Procedure: as §1

histidine tagged TRAIL [5] = target: T1, histidine tagged TRAIL; assay: ELISA; biotinylated DR5 mAb 2 on 1 µg/mL TRAIL-His coat

Chain of human DR5 (O14763 other isoform, or with tags, fused parts or gaps limits assumed): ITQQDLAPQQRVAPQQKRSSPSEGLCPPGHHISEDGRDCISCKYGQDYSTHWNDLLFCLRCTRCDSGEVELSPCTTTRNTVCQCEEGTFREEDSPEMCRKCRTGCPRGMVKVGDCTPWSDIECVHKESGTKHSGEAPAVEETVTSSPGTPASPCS

B1: DR5 mAb 1 (antibody, V domains shown)
VH: EVKFLESGGGLVQPGGSLKLSCVASGFDFSRYWMSWVRQAPGKGLEWIGEINPDSNTINYTPSLKDKFIISRDNAKNTLYLQMTKVRSEDTALYYCTRRAYYGNPAWFAYWGQGTLVTVSS
VL: DIVLTQSPASLAVSLGQRATISCRASKSVSSSGYSYMHWYQQKPGQPPKVLIFLSSNLDSGVPARFSGSGSGTDFTLNIHPVEDGDAATYYCQHSRDLPPTFGGGTKLEIK
notes: Murine anti-human DR5 monoclonal antibody; also called anti-human DR5 monoclonal antibody DR5 mAb 1
EC50 (read off the curve) (human DR5): ~1 nM | binding result (histidine tagged TRAIL [1]): no binding (tested: 2 µg/mL)

B2: DR5 mAb 4×CD3 mAb 2 diabody (bispecific antibody)
chain 1: EIVLTQSPGTLSLSPGERATLSCRASQGISRSYLAWYQQKPGQAPSLLIYGASSRATGIPDRFSGSGSGTDFTLTISRLEPEDFAVYYCQQFGSSPWTFGQGTKVEIKGGGSGGGGEVQLVESGGGLVQPGGSLRLSCAASGFTFSTYAMNWVRQAPGKGLEWVGRIRSKYNNYATYYADSVKGRFTISRDDSKNSLYLQMNSLKTEDTAVYYCVRHGNFGNSYVSWFAYWGQGTLVTVSSASTKGEVAACEKEVAALEKEVAALEKEVAALEK
chain 2: QAVVTQEPSLTVSPGGTVTLTCRSSTGAVTTSNYANWVQQKPGQAPRGLIGGTNKRAPWTPARFSGSLLGGKAALTITGAQAEDEADYYCALWYSNLWVFGGGTKLTVLGGGGSGGGGQVQLQESGPGLVKPSQTLSLTCTVSGGSISSGDYFWSWIRQLPGKGLEWIGHIHNSGTTYYNPSLKSRVTISVDTSKKQFSLRLSSVTAADTAVYYCARDRGGDYYYGMDVWGQGTTVTVSSASTKGKVAACKEKVAALKEKVAALKEKVAALKE
notes: Two-chain bi-specific DR5×CD3 diabody with the VL and VH of conatumumab (DR5 mAb 4); also called conatumumab variable domains
Kd [2]: 16.4 nM

B3: DR5 mAb 3×CD3 mAb 2 diabody (bispecific antibody)
chain 1: SELTQDPAVSVALGQTVRITCSGDSLRSYYASWYQQKPGQAPVLVIYGANNRPSGIPDRFSGSSSGNTASLTITGAQAEDEADYYCNSADSSGNHVVFGGGTKLTVLGGGGSGGGGEVQLVESGGGLVQPGGSLRLSCAASGFTFSTYAMNWVRQAPGKGLEWVGRIRSKYNNYATYYADSVKGRFTISRDDSKNSLYLQMNSLKTEDTAVYYCVRHGNFGNSYVSWFAYWGQGTLVTVSSASTKGEVAACEKEVAALEKEVAALEKEVAALEK
chain 2: QAVVTQEPSLTVSPGGTVTLTCRSSTGAVTTSNYANWVQQKPGQAPRGLIGGTNKRAPWTPARFSGSLLGGKAALTITGAQAEDEADYYCALWYSNLWVFGGGTKLTVLGGGGSGGGGEVQLVQSGGGVERPGGSLRLSCAASGFTFDDYAMSWVRQAPGKGLEWVSGINWQGGSTGYADSVKGRVTISRDNAKNSLYLQMNSLRAEDTAVYYCAKILGAGRGWYFDYWGKGTTVTVSSASTKGKVAACKEKVAALKEKVAALKEKVAALKE
notes: Two-chain bi-specific DR5×CD3 diabody with the VL and VH of drozitumab (DR5 mAb 3); also called drozitumab variable domains
Kd [3]: 13.3 nM

B4: DR5 mAb 2×CD3 mAb 2 diabody (bispecific antibody)
chain 1: DIVMTQSHKFMSTSVGDRVSITCKASQDVNTAVAWYQQKPGQSPKLLIYWASTRHTGVPDRFTGSGSGTDYTLTIKSVQAEDLTLYYCQQHYITPWTFGGGTKLEIKGGGSGGGGEVQLVESGGGLVQPGGSLRLSCAASGFTFSTYAMNWVRQAPGKGLEWVGRIRSKYNNYATYYADSVKGRFTISRDDSKNSLYLQMNSLKTEDTAVYYCVRHGNFGNSYVSWFAYWGQGTLVTVSSASTKGEVAACEKEVAALEKEVAALEKEVAALEK
chain 2: QAVVTQEPSLTVSPGGTVTLTCRSSTGAVTTSNYANWVQQKPGQAPRGLIGGTNKRAPWTPARFSGSLLGGKAALTITGAQAEDEADYYCALWYSNLWVFGGGTKLTVLGGGGSGGGGKVQLQQSGAELVKPGASVKLSCKASGYTFTEYILHWVKQKSGQGLEWIGWFYPGNNNIKYNEKFKDKATLTADKSSSTVYMELSRLTSEDSAVYFCARHEQGPGYFDYWGQGTTLTVSSASTKGKVAACKEKVAALKEKVAALKEKVAALKE
notes: Two-chain bi-specific DR5×CD3 diabody
Kd [4]: 0.42 nM

B5: DR5 mAb 2 (antibody, V domains shown)
VH: KVQLQQSGAELVKPGASVKLSCKASGYTFTEYILHWVKQKSGQGLEWIGWFYPGNNNIKYNEKFKDKATLTADKSSSTVYMELSRLTSEDSAVYFCARHEQGPGYFDYWGQGTTLTVSS
VL: DIVMTQSHKFMSTSVGDRVSITCKASQDVNTAVAWYQQKPGQSPKLLIYWASTRHTGVPDRFTGSGSGTDYTLTIKSVQAEDLTLYYCQQHYITPWTFGGGTKLEIK
notes: Murine anti-human DR5 monoclonal antibody; also called anti-human DR5 monoclonal antibody DR5 mAb 2; DR mAb 2
binding result (histidine tagged TRAIL [5]): no binding (tested: 2 µg/mL)
